For one molecule, binding result and binding signal results are on record in PMC3799435, “Dissecting the interactions of SERRATE with RNA and DICER-LIKE 1 in Arabidopsis microRNA precursor processing” (Nucleic Acids Research, 2013).

One data set deals with T1, SE (His-tagged) (Arabidopsis thaliana, UniProt Q9ZVD0 1-720).
T1 sequence: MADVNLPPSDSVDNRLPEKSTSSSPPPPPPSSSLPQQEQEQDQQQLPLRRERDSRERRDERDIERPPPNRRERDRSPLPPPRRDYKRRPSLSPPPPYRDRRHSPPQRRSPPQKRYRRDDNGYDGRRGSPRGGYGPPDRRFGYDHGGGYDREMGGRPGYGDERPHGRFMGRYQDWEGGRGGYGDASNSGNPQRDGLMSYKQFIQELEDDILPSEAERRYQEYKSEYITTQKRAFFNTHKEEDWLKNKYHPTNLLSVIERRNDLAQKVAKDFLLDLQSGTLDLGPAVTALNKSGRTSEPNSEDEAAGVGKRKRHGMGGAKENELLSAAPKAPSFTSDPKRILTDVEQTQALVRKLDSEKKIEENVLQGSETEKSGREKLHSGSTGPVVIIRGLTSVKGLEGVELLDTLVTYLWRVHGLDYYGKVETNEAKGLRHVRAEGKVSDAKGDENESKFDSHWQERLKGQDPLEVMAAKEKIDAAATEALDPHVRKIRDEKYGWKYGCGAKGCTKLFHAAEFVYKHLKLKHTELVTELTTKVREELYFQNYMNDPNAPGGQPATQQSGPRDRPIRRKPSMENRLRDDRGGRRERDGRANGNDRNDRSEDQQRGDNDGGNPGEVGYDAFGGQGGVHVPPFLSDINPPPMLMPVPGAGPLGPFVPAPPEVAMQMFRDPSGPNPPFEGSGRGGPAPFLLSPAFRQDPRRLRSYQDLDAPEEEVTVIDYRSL
Nature of the data set: SPR; 50 mM NaCl, 20 nM protein; SPR (Biacore T100): 20 mM Tris-HCl pH 7.0, 50 or 150 mM NaCl, 2 mM β-ME (0.005% P20 for SE variants); proteins 42-43 nM (Fig 2E), SE 20 nM (Fig 4), 16 nM DCL1 for complex; temperature not stated. Conditions: protein: recombinant; tags: N-terminal His6; vector also has inserted myc and Strep-tag II; label: 5'-biotin on strand 1; fork: 40 bp duplex; 20-nt 3' tail of strand 1 and 20-nt 5' tail of strand 2 unpaired; other end blunt. (Surface plasmon resonance follows binding to a sensor surface in real time, without labels.)

The target of the next data set is T2, SE143-720 (Arabidopsis thaliana, UniProt Q9ZVD0 143-720, del1-142).
T2 sequence: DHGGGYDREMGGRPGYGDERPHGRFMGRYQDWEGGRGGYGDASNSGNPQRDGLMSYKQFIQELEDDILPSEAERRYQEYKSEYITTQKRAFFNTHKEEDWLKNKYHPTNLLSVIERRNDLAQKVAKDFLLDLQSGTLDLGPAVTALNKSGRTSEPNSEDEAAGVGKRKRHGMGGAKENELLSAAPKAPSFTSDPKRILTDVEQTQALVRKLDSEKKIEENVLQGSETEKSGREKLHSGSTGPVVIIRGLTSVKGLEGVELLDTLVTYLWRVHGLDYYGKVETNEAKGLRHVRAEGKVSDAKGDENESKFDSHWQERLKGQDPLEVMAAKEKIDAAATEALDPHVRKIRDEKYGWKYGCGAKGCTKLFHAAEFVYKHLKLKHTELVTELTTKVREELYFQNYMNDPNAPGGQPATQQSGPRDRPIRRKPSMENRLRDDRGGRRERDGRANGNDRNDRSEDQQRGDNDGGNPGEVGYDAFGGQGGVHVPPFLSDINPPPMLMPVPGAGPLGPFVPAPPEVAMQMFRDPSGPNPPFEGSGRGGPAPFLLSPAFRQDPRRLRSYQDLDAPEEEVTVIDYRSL
The description is as above. Conditions: protein: recombinant; tags: N-terminal His6; vector also has inserted myc and Strep-tag II; label: 5'-biotin on strand 1; fork: 40 bp duplex; 20-nt 3' tail of strand 1 and 20-nt 5' tail of strand 2 unpaired; other end blunt.

In a further data set the target is T3, SE (untagged) (Arabidopsis thaliana, UniProt Q9ZVD0 1-720).
T3 sequence: T1 sequence
The experiment in a line: SPR; 50 mM NaCl; weaker than DCL1, rapid dissociation; SPR (Biacore T100): 20 mM Tris-HCl pH 7.0, 50 or 150 mM NaCl, 2 mM β-ME (0.005% P20 for SE variants); proteins 42-43 nM (Fig 2E), SE 20 nM (Fig 4), 16 nM DCL1 for complex; temperature not stated. Particulars: protein: recombinant; tags: none (His6-StrepII-SUMOstar removed); label: 5'-biotin on strand 1; fork: 40 bp duplex; 20-nt 3' tail of strand 1 and 20-nt 5' tail of strand 2 unpaired; other end blunt.

The next data set has as its target DCL1;SE143-720 (Arabidopsis thaliana;Arabidopsis …, UniProt Q9SP32;Q9ZVD0 1-1909;143-720, |del1-142). Nature of the data set: SPR; SE143-720 injected on preformed DCL1/RNA complex, 50 mM NaCl; SPR (Biacore T100): 20 mM Tris-HCl pH 7.0, 50 or 150 mM NaCl, 2 mM β-ME (0.005% P20 for SE variants); proteins 42-43 nM (Fig 2E), SE 20 nM (Fig 4), 16 nM DCL1 for complex; temperature not stated. Particulars: protein: recombinant;recombinant; tags: none (His6-StrepII-SUMOstar removed);N-terminal His6; vector also has inserted myc and Strep-tag II; label: 5'-biotin on strand 1; fork: 40 bp duplex; 20-nt 3' tail of strand 1 and 20-nt 5' tail of strand 2 unpaired; other end blunt.

Another data set addresses DCL1;SE (His-tagged) (Arabidopsis thaliana;Arabidopsis …, UniProt Q9SP32;Q9ZVD0 1-1909;1-720, |). The experiment in a line: SPR; SE injected on preformed DCL1/RNA complex, 50 mM NaCl; SE:DCL1 2.4:1; SPR (Biacore T100): 20 mM Tris-HCl pH 7.0, 50 or 150 mM NaCl, 2 mM β-ME (0.005% P20 for SE variants); proteins 42-43 nM (Fig 2E), SE 20 nM (Fig 4), 16 nM DCL1 for complex; temperature not stated. Particulars: protein: recombinant;recombinant; tags: none (His6-StrepII-SUMOstar removed);N-terminal His6; vector also has inserted myc and Strep-tag II; label: 5'-biotin on strand 1; fork: 40 bp duplex; 20-nt 3' tail of strand 1 and 20-nt 5' tail of strand 2 unpaired; other end blunt.

Sequence of DCL1;SE143-720 (Q9SP32 whole entry, stated change not applied, one chain of several): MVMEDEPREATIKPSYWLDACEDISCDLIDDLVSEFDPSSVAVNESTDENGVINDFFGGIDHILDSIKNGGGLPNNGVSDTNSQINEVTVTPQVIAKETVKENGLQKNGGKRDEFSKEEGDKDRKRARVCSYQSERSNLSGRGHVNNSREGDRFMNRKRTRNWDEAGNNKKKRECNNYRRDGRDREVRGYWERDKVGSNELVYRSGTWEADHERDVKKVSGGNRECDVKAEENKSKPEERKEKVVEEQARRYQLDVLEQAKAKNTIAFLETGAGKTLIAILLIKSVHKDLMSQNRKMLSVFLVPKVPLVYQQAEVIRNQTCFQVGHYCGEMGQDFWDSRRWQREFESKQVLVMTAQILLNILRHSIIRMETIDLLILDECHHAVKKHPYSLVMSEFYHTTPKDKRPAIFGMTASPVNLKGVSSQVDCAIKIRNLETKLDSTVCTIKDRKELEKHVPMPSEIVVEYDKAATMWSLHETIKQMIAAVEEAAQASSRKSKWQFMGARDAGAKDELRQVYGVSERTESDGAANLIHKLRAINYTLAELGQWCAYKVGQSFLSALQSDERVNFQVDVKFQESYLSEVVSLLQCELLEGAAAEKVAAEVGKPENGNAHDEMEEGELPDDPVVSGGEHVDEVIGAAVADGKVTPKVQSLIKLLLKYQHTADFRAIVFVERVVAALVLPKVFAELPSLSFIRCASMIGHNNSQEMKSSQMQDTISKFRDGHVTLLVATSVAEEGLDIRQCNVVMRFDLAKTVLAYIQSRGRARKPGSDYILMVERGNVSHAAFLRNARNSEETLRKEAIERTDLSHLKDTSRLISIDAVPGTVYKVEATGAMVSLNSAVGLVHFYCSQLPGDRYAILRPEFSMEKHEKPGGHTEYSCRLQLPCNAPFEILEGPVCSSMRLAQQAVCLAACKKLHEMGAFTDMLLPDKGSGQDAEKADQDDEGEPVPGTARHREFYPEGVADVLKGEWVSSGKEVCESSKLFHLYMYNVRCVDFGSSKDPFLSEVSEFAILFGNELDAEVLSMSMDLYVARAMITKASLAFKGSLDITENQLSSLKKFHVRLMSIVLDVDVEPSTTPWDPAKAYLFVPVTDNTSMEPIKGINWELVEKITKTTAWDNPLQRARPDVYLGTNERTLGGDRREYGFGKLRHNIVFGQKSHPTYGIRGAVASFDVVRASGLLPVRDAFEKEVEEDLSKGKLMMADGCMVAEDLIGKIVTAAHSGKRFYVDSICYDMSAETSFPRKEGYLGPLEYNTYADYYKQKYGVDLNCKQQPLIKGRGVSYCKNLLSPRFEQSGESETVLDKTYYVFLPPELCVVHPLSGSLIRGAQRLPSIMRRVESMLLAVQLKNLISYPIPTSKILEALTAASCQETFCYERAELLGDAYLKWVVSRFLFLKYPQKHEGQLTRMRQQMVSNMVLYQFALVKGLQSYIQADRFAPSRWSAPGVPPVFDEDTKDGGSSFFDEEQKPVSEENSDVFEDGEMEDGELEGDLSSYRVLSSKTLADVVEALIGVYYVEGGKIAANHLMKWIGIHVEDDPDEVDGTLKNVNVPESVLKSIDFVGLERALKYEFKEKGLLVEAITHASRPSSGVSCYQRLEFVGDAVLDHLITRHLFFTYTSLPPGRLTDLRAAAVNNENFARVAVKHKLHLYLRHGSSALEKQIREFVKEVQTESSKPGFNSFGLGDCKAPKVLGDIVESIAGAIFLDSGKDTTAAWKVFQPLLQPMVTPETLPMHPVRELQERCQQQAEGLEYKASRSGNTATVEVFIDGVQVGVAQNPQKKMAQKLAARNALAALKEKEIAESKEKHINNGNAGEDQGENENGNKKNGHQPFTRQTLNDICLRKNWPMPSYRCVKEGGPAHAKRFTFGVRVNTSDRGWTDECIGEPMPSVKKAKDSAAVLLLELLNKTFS
Sequence of DCL1;SE (His-tagged) (Q9SP32 whole entry, one chain of several): as the sequence (Q9SP32 whole entry, stated change not applied, one chain of several) above

B1: forked-RNA (dsRNA)
RNA 1: CAACCCAAGAUAGAUCAUGCAGGCAGCUUCAUCAGAUGCCGCUCCCUCUUUUUUUCUCUA
RNA 2: GCUCCCUCUUUUUUUCUCUAGGCAUCUGAUGAAGCUGCCUGCAUGAUCUAUCUUGGGUUG
As for B1, the binding result with SE (His-tagged), with SE (untagged) and with DCL1;SE (His-tagged) was “binds” throughout. Also, the values for the binding signal with SE143-720 and in the data set with DCL1;SE143-720 were 6 fold reduction vs wild-type SE and 2 fold less RUmax vs wild-type SE, respectively.
